Three substances from patent US10196445 can be followed below.

Experiment in all cases: Fc receptor binding, method not stated
For one assay, the target named is CD64 (FcγRIa) (human) (UniProt P12314).
The target in assay [1] is CD32-R131 (FcγRIIa) (human) (UniProt P12318).
The next assay addresses CD32B (FcγRIIb) (human) (UniProt P31994).
Assay [2] addresses CD16-V158 (FcγRIIIa) (human) (UniProt P08637).
Assay [3] has as its target CD32-H131 (FcγRIIa) (human) (UniProt P12318).

Sequence of CD64 (FcγRIa) (human) (P12314 16-288 limits assumed): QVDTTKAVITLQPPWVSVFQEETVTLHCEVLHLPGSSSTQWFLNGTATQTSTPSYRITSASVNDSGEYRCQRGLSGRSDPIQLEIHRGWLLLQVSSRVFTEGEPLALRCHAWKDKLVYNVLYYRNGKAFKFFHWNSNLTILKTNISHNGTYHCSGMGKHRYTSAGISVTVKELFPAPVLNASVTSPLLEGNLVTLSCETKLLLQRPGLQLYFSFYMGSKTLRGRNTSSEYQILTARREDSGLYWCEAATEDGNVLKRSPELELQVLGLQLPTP
Sequence of CD32-R131 (FcγRIIa) (human) (P12318 34-217 H167R limits assumed): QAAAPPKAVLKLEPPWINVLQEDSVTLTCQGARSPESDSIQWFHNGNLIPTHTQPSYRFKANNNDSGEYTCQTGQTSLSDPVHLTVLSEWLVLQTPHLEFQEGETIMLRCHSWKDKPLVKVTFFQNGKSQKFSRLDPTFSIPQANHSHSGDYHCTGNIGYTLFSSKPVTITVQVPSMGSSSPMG
Sequence of CD16-V158 (FcγRIIIa) (human) (P08637 17-208 F176V limits assumed): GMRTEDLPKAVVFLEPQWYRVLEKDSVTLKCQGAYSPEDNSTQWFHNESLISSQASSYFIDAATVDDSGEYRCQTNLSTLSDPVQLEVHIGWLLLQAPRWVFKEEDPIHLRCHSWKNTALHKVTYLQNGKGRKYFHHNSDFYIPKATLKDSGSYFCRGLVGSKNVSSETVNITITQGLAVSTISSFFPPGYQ
Sequence of CD32-H131 (FcγRIIa) (human) (P12318 34-217 limits assumed): as the sequence (P12318 34-217 H167R limits assumed) above, with R134H counted along it
Sequence of CD32B (FcγRIIb) (human) (P31994 43-217 limits assumed): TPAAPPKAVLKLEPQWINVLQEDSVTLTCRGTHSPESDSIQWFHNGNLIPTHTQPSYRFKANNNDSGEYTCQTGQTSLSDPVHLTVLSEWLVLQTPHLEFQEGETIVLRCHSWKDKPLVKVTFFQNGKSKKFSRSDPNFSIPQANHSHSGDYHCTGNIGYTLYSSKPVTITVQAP

The Kd is the free concentration of one partner at which half of the binding sites on the other are occupied at equilibrium, for simple one-to-one binding. Read a high Kd as weaker binding. With “GASDALIE modified IgG1f antibody (human IgG1, 214R/356E/358M allotype; G236A, S239D, A330L and I332E)”, the Kd worked out at 0.6 nM with CD64 (FcγRIa) (human), 100 nM in assay [1] and 890 nM with CD32B (FcγRIIb) (human).
As for “non-fucosylated IgG1f antibody (human IgG1, 214R/356E/358M allotype)”, the Kd was 0.1 nM with CD64 (FcγRIa) (human), 11 nM in assay [2], 560 nM in assay [3] and 710 nM in assay [1].
The like results for “IgG1f antibody (human IgG1, 214R/356E/358M allotype)” were, in that order, 0.2 nM, 97 nM, 530 nM and 960 nM.
